Molecular target: the molecule itself
Test: SEC; purified recombinant protein (40 μg in 50 μl) on a TOSOH G2000 SWXL column in hexokinase buffer (20 mM HEPES, 5 mM Mg acetate, 100 mM NaCl, 0.5 mM EDTA, 0.5 mM DTT) without glucose, no ATP, 1 mL/min

B1: Recombinant Hxk2, wild type, C-terminal 6-histidine tag, from E. coli (enzyme, S. cerevisiae, UniProt P04807 1-486, looked up)
chain: MVHLGPKKPQARKGSMADVPKELMQQIENFEKIFTVPTETLQAVTKHFISELEKGLSKKGGNIPMIPGWVMDFPTGKESGDFLAIDLGGTNLRVVLVKLGGDRTFDTTQSKYRLPDAMRTTQNPDELWEFIADSLKAFIDEQFPQGISEPIPLGFTFSFPASQNKINEGILQRWTKGFDIPNIENHDVVPMLQKQITKRNIPIEVVALINDTTGTLVASYYTDPETKMGVIFGTGVNGAYYDVCSDIEKLQGKLSDDIPPSAPMAINCEYGSFDNEHVVLPRTKYDITIDEESPRPGQQTFEKMSSGYYLGEILRLALMDMYKQGFIFKNQDLSKFDKPFVMDTSYPARIEEDPFENLEDTDDLFQNEFGINTTVQERKLIRRLSELIGARAARLSVCGIAAICQKRGYKTGHIAADGSVYNRYPGFKEKAANALKDIYGWTQTSLDDYPIKIVPAEDGSGAGAAVIAALAQKRIAEGKSVGIIGA
notes: Hexokinase 2 (Hxk2) of S. cerevisiae; also called WT Hxk2; wild-type Hxk2; source: E. coli (pET14b), purified (Ni-NTA)
Question: How did the “stoichiometry N” value turn out when B1 was run?
Answer: 2
